We go through one molecule from US20210403582A1 (JACOBIO PHARMACEUTICALS, published 2021).

In assay [1] the target is recombinant machin LIF protein (machin, UniProt A0A2K5UCA8 23-202). The assay can be described thus: ELISA, machin LIF coated at 0.5 µg/mL, A450. As for the experimental part:
The recombinant machin LIF protein (purchased from Sino biological) was diluted to 0.5 μg/mL, and was coated on the enzyme label plate, 100 μL of protein was added into every well, and incubated overnight in 4° C. The enzyme label plates were taken out next day, and the liquid was discarded, and were washed with PBST three times and blocked with 2% BSA in PBS for 1 h at room temperature, then washed with PBST three times, and added anti-human LIF antibodies 38E10E1C11, 5D8 and P36-033 at different concentrations and incubated for 1 h at room temperature. The liquid was discarded, and the plates were washed with PBST four times. The plates were added with HRP-labeled goat anti-mouse Fab antibody or goat anti-human FC antibody and incubated for 1 h at room temperature. Then the liquid was discarded, and the plates were washed with PBST four times and incubated with TMB colored solution in 10 minutes at room temperature. Stop color development by adding 2 mol/L H₂SO₄, and the absorption value at 450 nm is quantitated using an automated plate photometer, and the results were shown in FIG. 3.

A further assay addresses T1, human OSM (human, UniProt P13725 26-221, limits assumed).
T1 sequence (looked up): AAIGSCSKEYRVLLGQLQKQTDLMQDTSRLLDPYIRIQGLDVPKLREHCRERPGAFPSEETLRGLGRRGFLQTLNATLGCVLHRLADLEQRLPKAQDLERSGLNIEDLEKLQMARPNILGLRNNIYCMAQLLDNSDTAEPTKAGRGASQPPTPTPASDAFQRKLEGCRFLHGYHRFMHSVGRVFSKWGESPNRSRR
The assay can be described thus: ELISA, human OSM coated at 1 µg/mL, HRP goat anti-mouse Fab, A450. As for the experimental part: (§1) After washed four times with PBST, HRP-labeled goat anti-mouse Fab secondary antibodies were added and incubated at room temperature for 1 h. After washed four times with PBST, TMB colored solution was added and color developing for 10 min at room temperature. The absorption value at 450 nm was read by the enzyme maker. The data were analyzed and plotted using Origin pro 9 software.

For a further assay, the target named is T2, human CNTF (human, UniProt P26441 1-200, limits assumed).
T2 sequence (looked up): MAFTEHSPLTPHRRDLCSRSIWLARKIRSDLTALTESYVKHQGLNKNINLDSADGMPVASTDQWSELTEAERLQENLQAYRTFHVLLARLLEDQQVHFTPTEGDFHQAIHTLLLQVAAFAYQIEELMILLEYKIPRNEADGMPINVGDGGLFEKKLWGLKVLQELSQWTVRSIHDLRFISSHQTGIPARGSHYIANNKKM
The assay can be described thus: ELISA, human CNTF coated at 1 µg/mL, HRP goat anti-mouse Fab, A450. As for the experimental part: as §1

For assay [2], the target named is T3, human LIF protein (human, UniProt P15018 23-202).
T3 construct: Bought recombinant protein (Sino Biological / Yiqiao Shenzhou 14890-HNAH) in most assays; also called recombinant human LIF protein; rhLIF
T3 sequence (P15018 23-202 limits assumed): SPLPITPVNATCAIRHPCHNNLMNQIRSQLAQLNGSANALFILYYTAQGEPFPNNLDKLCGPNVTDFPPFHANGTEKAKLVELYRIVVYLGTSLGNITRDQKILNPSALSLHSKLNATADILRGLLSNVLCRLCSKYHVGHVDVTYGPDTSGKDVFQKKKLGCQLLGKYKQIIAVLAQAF
The assay can be described thus: competition ELISA, LIF coated, competitor LIFR-Fc 0.6125 ug/mL detected with anti-human Fc.

The target of assay [3] is T4, Mut3 heterozygous LIF protein (human LIF with residues 182-202 of …, UniProt P15018 23-201, limits assumed).
T4 construct: Secreted into the supernatant of transfected 293T cells; also called Mut3 protein
T4 sequence (P15018 other isoform, or with tags, fused parts or gaps limits assumed): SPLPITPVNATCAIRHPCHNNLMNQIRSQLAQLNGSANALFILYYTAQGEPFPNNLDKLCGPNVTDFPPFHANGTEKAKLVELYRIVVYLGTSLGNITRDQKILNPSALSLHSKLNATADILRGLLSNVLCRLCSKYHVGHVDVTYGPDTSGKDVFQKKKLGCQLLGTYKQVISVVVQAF
The assay can be described thus: western blot of 293T culture supernatants, primary antibody 38E10E1C11, HRP goat anti-mouse Fab.

Assay [4] concerns the target T3, human LIF protein. The experiment in a line: competition ELISA: human LIF coated at 1 µg/mL, LIFR-Fc 0.6125 µg/mL added together with the antibody, A450. As for the experimental part: The recombinant human LIF protein was coated on the enzyme label plate at a concentration of 1 μg/mL, LIFR protein (expressed fusedly with human FC) at a concentration of 0.6125 μg/mL was added (50 μL/well), and the anti-human LIF antibodies 38E10E1C11, P36-033 and 38E10E1C11R which is recombinantly expressed by CHO cells (SEQ ID NOs: 41 and 43) at different concentrations simultaneously were added separately (50 μL/well) and incubated for 2 h at room temperature. After washed four times with PBST, incubated with HRP-labeled goat anti-mouse FC secondary antibody for 1 h at room temperature. Then the plates were washed four times with PBST and added with TMB coloured solution in for 10 minutes. The absorption value at 450 nm is quantitated using an enzyme-labelling measuring instrument, and the data was analyzed and plotted using Origin pro 9 software.

Chain of recombinant machin LIF protein (A0A2K5UCA8 entry or part of it limits assumed): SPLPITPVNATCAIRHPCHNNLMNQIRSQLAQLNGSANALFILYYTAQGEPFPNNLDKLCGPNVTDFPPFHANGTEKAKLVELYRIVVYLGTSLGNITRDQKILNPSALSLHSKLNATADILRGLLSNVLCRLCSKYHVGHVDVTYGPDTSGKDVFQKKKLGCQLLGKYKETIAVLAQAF

B1: 38E10E1C11 antibody (antibody, mouse IgG1, kappa)
heavy: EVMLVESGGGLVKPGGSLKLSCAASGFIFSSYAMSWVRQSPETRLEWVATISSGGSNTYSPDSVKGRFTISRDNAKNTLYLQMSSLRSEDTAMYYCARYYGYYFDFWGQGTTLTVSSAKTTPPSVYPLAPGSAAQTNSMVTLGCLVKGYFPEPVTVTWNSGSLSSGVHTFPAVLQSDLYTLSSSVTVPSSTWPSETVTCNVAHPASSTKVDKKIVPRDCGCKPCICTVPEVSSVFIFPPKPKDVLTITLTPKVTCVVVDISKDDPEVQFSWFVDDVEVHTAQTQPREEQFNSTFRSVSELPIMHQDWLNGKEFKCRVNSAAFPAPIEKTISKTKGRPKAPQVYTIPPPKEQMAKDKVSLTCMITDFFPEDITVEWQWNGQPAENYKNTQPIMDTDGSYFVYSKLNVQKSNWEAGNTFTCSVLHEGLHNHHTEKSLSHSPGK
light: DIHMTQSPASLSASVGETVTITCRASENIYSYLAWYQQKQGKSPQLLVYNAKTLAEGVPSRFSGSGSGTQFSLKINSLQPEDFGSYYCQHHYVTPLTFGAGTKLELKRADAAPTVSIFPPSSEQLTSGGASVVCFLNNFYPKDINVKWKIDGSERQNGVLNSWTDQDSKDSTYSMSSTLTLTKDEYERHNSYTCEATHKTSTSPIVKSFNRNEC
notes: Mouse IgG1, kappa light chain; also called 38E10E1C11 mAb; mAb38E10E1C11
Regarding B1, the “EC50 (read off the curve)” value in assay [1] was ~0.07 mg/L. In addition, the values for the binding result (in the assay with human OSM; in the assay with human CNTF; in assay [3]) were “no binding (tested: 25 ug/ml)”, “no binding (tested: 25 ug/ml)” and “binds”, respectively. In the assay with human LIF protein [2], this molecule returned an IC50 of 0.074 mg/L. In addition, the “IC50 (read off the curve)” value with human LIF protein [4] was ~0.1 mg/L.
